Reference: patent publication US20260218140

Target: T1, 5-270 TNA polymerase (synthetic construct (chimera of Thermococcus/Pyrococcus B-family polymerases)) (UniProt P56689)
T1 sequence: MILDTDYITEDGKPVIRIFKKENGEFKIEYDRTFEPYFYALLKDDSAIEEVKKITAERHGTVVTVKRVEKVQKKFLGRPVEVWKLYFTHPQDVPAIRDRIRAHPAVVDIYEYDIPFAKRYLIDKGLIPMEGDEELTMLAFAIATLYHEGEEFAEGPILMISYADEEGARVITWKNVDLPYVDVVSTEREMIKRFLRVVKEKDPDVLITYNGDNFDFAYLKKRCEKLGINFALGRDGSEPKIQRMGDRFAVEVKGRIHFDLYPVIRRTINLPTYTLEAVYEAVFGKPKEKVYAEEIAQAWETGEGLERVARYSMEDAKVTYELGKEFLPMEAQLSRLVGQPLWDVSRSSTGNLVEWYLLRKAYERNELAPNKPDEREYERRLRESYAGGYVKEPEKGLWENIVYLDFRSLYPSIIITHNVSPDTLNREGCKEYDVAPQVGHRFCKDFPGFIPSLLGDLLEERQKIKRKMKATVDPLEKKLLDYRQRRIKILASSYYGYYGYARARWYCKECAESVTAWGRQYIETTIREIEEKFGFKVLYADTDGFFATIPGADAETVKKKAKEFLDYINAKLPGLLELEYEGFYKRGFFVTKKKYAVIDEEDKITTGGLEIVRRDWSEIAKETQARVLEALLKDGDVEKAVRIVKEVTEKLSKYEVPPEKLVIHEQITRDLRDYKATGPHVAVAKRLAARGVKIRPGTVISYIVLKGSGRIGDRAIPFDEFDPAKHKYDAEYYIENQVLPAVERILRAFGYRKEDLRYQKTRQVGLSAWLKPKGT
Conditions: TNA primer extension; ~2-fold figure is from text on the clone screen

GTCCCCTTGGGGATACCACC / TCGTTCTCGGACGGAGAGATATTGAANGGTGGTATCCCCAAGGGGAC [PBS8 primer / L30.5 random library template]
binding signal (fold vs Kod-RSGA): 2
